# Results reported in patent publication EP4574844A1 (Numab Therapeutics AG, dated 2025).
# Legend:
# recombinant human PDL1 = molecular target: T1, recombinant human PDL1 (human, UniProt Q9NZQ7 19-238, limits assumed); assay: SPR
# T1 construct: SPR antigen; also called CD274; B7-H1
# [1] = molecular target: human PD-L1 on the cell surface (human, UniProt Q9NZQ7 19-290); assay: cell-based or functional assay
# [2] = molecular target: human CD47 on the cell surface (human, UniProt Q08722 19-323); assay: cell-based or functional assay
Binder,Kd (recombinant human PDL1),koff (recombinant human PDL1),kon (recombinant human PDL1),"PD-L1 driven EC50 [nM], phagocytosis of H292 cells [1]","CD47 driven EC50 [nM], phagocytosis of H292 cells [2]","CD47 driven EC50 [nM], phagocytosis of RBCs [2]"
"PRO3724 (scFv, anti-PDL1 scFv) scFv: DIQMTQSPSSLSASVGDRVTITCQASQSINDYLAWYQQKPGKAPKLLIYKGGTLASGVPSRFSGSGSGTDFTLTISSLQPEDFATYYCQQGYIITDIDNVFGTGTKVTVLGGGGGSGGGGSGGGGSGGGGSQVQLQESGPGLVKPSETLSLTCKASGFSFSSGYDMCWVRQPPGKGLEWIACVVAGSVDITYYASWAKGRVTISKDSSKNQVSLKLSSVTAADTAVYYCARKDAYSDAFNLWGQGTLVTVSS",0.012 nM,5.7e-05 s⁻¹,4.7e+06 M⁻¹ s⁻¹,–,–,–
"PRO4682 (antibody, human IgG1, kappa) QQVVESGGGLVQPGGSLRLSCAVSGIDLNSYAMTWVRQAPGKGLEWIGYIGSASSTYYASWASGRFTISKDNSKNTVYLQMNSLRAEDTAVYFCARGSTYINIWGQGTLVTVSSASTKGPSVFPLAPSSKSTSGGTAALGCLVKDYFPEPVTVSWNSGALTSGVHTFPAVLQSSGLYSLSSVVTVPSSSLGTQTYICNVNHKPSNTKVDKKVEPKSCDKTHTCPPCPAPELLGGPSVFLFPPKPKDTLMISRTPEVTCVVVDVSHEDPEVKFNWYVDGVEVHNAKTKPREEQYNSTYRVVSVLTVLHQDWLNGKEYKCKVSNKALPAPIEKTISKAKGQPREPQVYTLPPCREEMTKNQVSLSCAVKGFYPSDIAVEWESNGQPENNYKTTPPVLDSDGSFFLVSKLTVDKSRWQQGNVFSCSVMHEALHNHYTQKSLSLSPGKGGGGGSGGGGSDVQMTQSPSSLSASVGDRVTITCQASQSIGSNLAWYQQKPGKPPKLLIYKGGTLESGVPSRFSGSGSGTDFTLTISSLQPEDFATYYCQSTAGSSRSGNYGYVFGCGTKVTVLGGGGGSGGGGSGGGGSGGGGSQQLVESGGGLVQPGGSLRLSCAASGFSFTNNYYMCWVRQAPGKCLEWIACMLVGAWGNTYYASWANGRFTISKDNSKNTVYLQMNSLRAEDSAVYFCARARDYTWTLGGDPETSGFNLWGQGTLVKVSS heavy: not shown light: DVQMTQSPSSLSASVGDRVTITCQASQSISSWVSWYQQKPGKPPKLLIYRGGYLESGVPSRFSASGSGTDFTLTISSLQPEDFATYYCQSTDSSTYGGAFGQGTKVEIKRTVAAPSVFIFPPSDEQLKSGTASVVCLLNNFYPREAKVQWKVDNALQSGNSQESVTEQDSKDSTYSLSSTLTLSKADYEKHKVYACEVTHQGLSSPVTKSFNRGEC",–,–,–,0.14 nM,9.3 nM,2.78 nM
"PRO4683 (antibody, human IgG1, kappa) not shown heavy: QQVVESGGGLVQPGGSLRLSCAVSGIDLNSYAMTWVRQAPGKGLEWIGYIGSASSTYYASWASGRFTISKDNSKNTVYLQMNSLRAEDTAVYFCARGSTYINIWGQGTLVTVSSASTKGPSVFPLAPSSKSTSGGTAALGCLVKDYFPEPVTVSWNSGALTSGVHTFPAVLQSSGLYSLSSVVTVPSSSLGTQTYICNVNHKPSNTKVDKKVEPKSCDKTHTCPPCPAPELLGGPSVFLFPPKPKDTLMISRTPEVTCVVVDVSHEDPEVKFNWYVDGVEVHNAKTKPREEQYNSTYRVVSVLTVLHQDWLNGKEYKCKVSNKALPAPIEKTISKAKGQPREPQVYTLPPCREEMTKNQVSLSCAVKGFYPSDIAVEWESNGQPENNYKTTPPVLDSDGSFFLVSKLTVDKSRWQQGNVFSCSVMHEALHNHYTQKSLSLSPGKGGGGGSGGGGSDIQMTQSPSSLSASVGDRVTITCQSSESVYSNNQLSWYQQKPGQPPKLLIYDASDLASGVPSRFSGSGSGTDFTLTISSLQPEDFATYYCAGGFSSSSDTAFGCGTKLTVLGGGGGSGGGGSGGGGSGGGGSEVQLVESGGGLVQPGGSLRLSCAASGFSLSSNAMGWVRQAPGKCLEYIGIISVGGFTYYASWAKGRFTISRDNSKNTVYLQMNSLRAEDSATYFCARDRHGGDSSGAFYLWGQGTLVKVSS light: DVQMTQSPSSLSASVGDRVTITCQASQSISSWVSWYQQKPGKPPKLLIYRGGYLESGVPSRFSASGSGTDFTLTISSLQPEDFATYYCQSTDSSTYGGAFGQGTKVEIKRTVAAPSVFIFPPSDEQLKSGTASVVCLLNNFYPREAKVQWKVDNALQSGNSQESVTEQDSKDSTYSLSSTLTLSKADYEKHKVYACEVTHQGLSSPVTKSFNRGEC",–,–,–,0.19 nM,5.33 nM,2.69 nM
"PRO3723 (scFv, anti-PDL1 scFv) scFv: DIQMTQSPASLSASVGDRVTITCQASQSIGTYLAWYQQKPGKPPKLLIYRGGILASGVPSRFSGSGSGTDFTLTISSLQPEDFATYYCQSNFYSDSTTIGPNAFGTGTKVTVLGGGGGSGGGGSGGGGSGGGGSEVQLVESGGGLVQPGGSLRLSCAASGFSFNSDYWIYWVRQAPGKGLEWIACIYGGSSGNTQYASWAQGRFTISRDNSKNTVYLQMNSLRAEDTAVYFCARGYVDYGGATDLWGQGTLVTVSS",0.0258 nM,7.95e-05 s⁻¹,3.08e+06 M⁻¹ s⁻¹,–,–,–

# Continued, values first:
Kd (recombinant human PDL1),koff (recombinant human PDL1),kon (recombinant human PDL1),"PD-L1 driven EC50 [nM], phagocytosis of H292 cells [1]","CD47 driven EC50 [nM], phagocytosis of H292 cells [2]","CD47 driven EC50 [nM], phagocytosis of RBCs [2]",Binder
0.034 nM,0.00014 s⁻¹,4e+06 M⁻¹ s⁻¹,–,–,–,"PRO5036 (scFv, anti-PDL1 scFv) scFv: DIQMTQSPSSLSASVGDRVTITCQASQSIGTYLAWYQQKPGKPPKLLIYRGGILASGVPSRFSGSGSGTDFTLTISSLQPEDFATYYCQSNFYSDSTTIGPNAFGTGTKVTVLGGGGGSGGGGSGGGGSGGGGSQQLVESGGGLVQPGGSLRLSCAASGFSFNSDYWIYWVRQAPGKGLEWIASIYGGSSGNTQYASWAQGRFTISKDNSKNTVYLQMNSLRAEDTAVYFCARGYVDYGGATDLWGQGTLVTVSS"
–,–,–,0.071 nM,25.2 nM,37.4 nM,"PRO4914 (antibody, human IgG1, kappa) heavy 1: QQVVESGGGLVQPGGSLRLSCAVSGIDLNSYAMTWVRQAPGKGLEWIGYIGSASSTYYASWASGRFTISKDNSKNTVYLQMNSLRAEDTAVYFCARGSTYINIWGQGTLVTVSSASVAAPSVFIFPPSDEQLKSGTASVVCLLNNFYPREAKVQWKVDNALQSGNSQESVTEQDSKDSTYSLSSTLTLSKADYEKHKVYACEVTHQGLSSPVTKSFNRGECDKTHTCPPCPAPELLGGPSVFLFPPKPKDTLMISRTPEVTCVVVDVSHEDPEVKFNWYVDGVEVHNAKTKPREEQYNSTYRVVSVLTVLHQDWLNGKEYKCKVSNKALPAPIEKTISKAKGQPREPQVYTLPPCREEMTKNQVSLSCAVKGFYPSDIAVEWESNGQPENNYKTTPPVLDSDGSFFLVSKLTVDKSRWQQGNVFSCSVMHEALHNHYTQKSLSLSPGKGGGGSGGGGSDVQMTQSPSSLSASVGDRVTITCQASQSIGSNLAWYQQKPGKPPKLLIYKGGTLESGVPSRFSGSGSGTDFTLTISSLQPEDFATYYCQSTAGSSRSGNYGYVFGCGTKVTVLGGGGGSGGGGSGGGGSGGGGSQQLVESGGGLVQPGGSLRLSCAASGFSFTNNYYMCWVRQAPGKCLEWIACMLVGAWGNTYYASWANGRFTISKDNSKNTVYLQMNSLRAEDSAVYFCARARDYTWTLGGDPETSGFNLWGQGTLVKVSS heavy 2: not shown light 1: DVQMTQSPSSLSASVGDRVTITCQASQSISSWVSWYQQKPGKPPKLLIYRGGYLESGVPSRFSASGSGTDFTLTISSLQPEDFATYYCQSTDSSTYGGAFGQGTKVEIKSSASTKGPSVFPLAPSSKSTSGGTAALGCLVKDYFPEPVTVSWNSGALTSGVHTFPAVLQSSGLYSLSSVVTVPSSSLGTQTYICNVNHKPSNTKVDKKVEPKSC light 2: DIQMTQSPSSLSASVGDRVTITCQASQSIGTYLAWYQQKPGKPPKLLIYRGGILASGVPSRFSGSGSGTDFTLTISSLQPEDFATYYCQSNFYSDSTTIGPNAFGQGTKVEIKRTVAAPSVFIFPPSDEQLKSGTASVVCLLNNFYPREAKVQWKVDNALQSGNSQESVTEQDSKDSTYSLSSTLTLSKADYEKHKVYACEVTHQGLSSPVTKSFNRGEC"
–,–,–,0.09 nM,–,–,PRO5054 (antibody) chain 1: DIQMTQSPSSLSASVGDRVTITCQSSESVYSNNQLSWYQQKPGQPPKLLIYDASDLASGVPSRFSGSGSGTDFTLTISSLQPEDFATYYCAGGFSSSSDTAFGCGTKLTVLGGGGGSGGGGSGGGGSGGGGSEVQLVESGGGLVQPGGSLRLSCAASGFSLSSNAMGWVRQAPGKCLEYIGIISVGGFTYYASWAKGRFTISRDNSKNTVYLQMNSLRAEDSATYFCARDRHGGDSSGAFYLWGQGTLVKVSSEPKSSDKTHTCPPCPAPELLGGPSVFLFPPKPKDTLMISRTPEVTCVVVDVSHEDPEVKFNWYVDGVEVHNAKTKPREEQYNSTYRVVSVLTVLHQDWLNGKEYKCKVSNKALPAPIEKTISKAKGQPREPQVYTLPPCREEMTKNQVSLSCAVKGFYPSDIAVEWESNGQPENNYKTTPPVLDSDGSFFLVSKLTVDKSRWQQGNVFSCSVMHEALHNHYTQKSLSLSPGKGGGGSGGGGSDVQMTQSPSSLSASVGDRVTITCQASQSIGSNLAWYQQKPGKPPKLLIYKGGTLESGVPSRFSGSGSGTDFTLTISSLQPEDFATYYCQSTAGSSRSGNYGYVFGCGTKVTVLGGGGGSGGGGSGGGGSGGGGSQQLVESGGGLVQPGGSLRLSCAASGFSFTNNYYMCWVRQAPGKCLEWIACMLVGAWGNTYYASWANGRFTISKDNSKNTVYLQMNSLRAEDSAVYFCARARDYTWTLGGDPETSGFNLWGQGTLVKVSS chain 2: not shown
–,–,–,0.13 nM,–,–,"PRO5057 (antibody, human IgG1, kappa) DIQMTQSPSSLSASVGDRVTITCQSSESVYSNNQLSWYQQKPGQPPKLLIYDASDLASGVPSRFSGSGSGTDFTLTISSLQPEDFATYYCAGGFSSSSDTAFGCGTKLTVLGGGGGSGGGGSGGGGSGGGGSEVQLVESGGGLVQPGGSLRLSCAASGFSLSSNAMGWVRQAPGKCLEYIGIISVGGFTYYASWAKGRFTISRDNSKNTVYLQMNSLRAEDSATYFCARDRHGGDSSGAFYLWGQGTLVKVSSEPKSSDKTHTCPPCPAPELLGGPSVFLFPPKPKDTLMISRTPEVTCVVVDVSHEDPEVKFNWYVDGVEVHNAKTKPREEQYNSTYRVVSVLTVLHQDWLNGKEYKCKVSNKALPAPIEKTISKAKGQPREPQVYTLPPCREEMTKNQVSLSCAVKGFYPSDIAVEWESNGQPENNYKTTPPVLDSDGSFFLVSKLTVDKSRWQQGNVFSCSVMHEALHNHYTQKSLSLSPGKGGGGSGGGGSDVQMTQSPSSLSASVGDRVTITCQASQSIGSNLAWYQQKPGKPPKLLIYKGGTLESGVPSRFSGSGSGTDFTLTISSLQPEDFATYYCQSTAGSSRSGNYGYVFGCGTKVTVLGGGGGSGGGGSGGGGSGGGGSQQLVESGGGLVQPGGSLRLSCAASGFSFTNNYYMCWVRQAPGKCLEWIACMLVGAWGNTYYASWANGRFTISKDNSKNTVYLQMNSLRAEDSAVYFCARARDYTWTLGGDPETSGFNLWGQGTLVKVSS heavy: not shown light: DIQMTQSPSSLSASVGDRVTITCQASQSINDYLAWYQQKPGKAPKLLIYKGGTLASGVPSRFSGSGSGTDFTLTISSLQPEDFATYYCQQGYIITDIDNVFGQGTKVEIKRTVAAPSVFIFPPSDEQLKSGTASVVCLLNNFYPREAKVQWKVDNALQSGNSQESVTEQDSKDSTYSLSSTLTLSKADYEKHKVYACEVTHQGLSSPVTKSFNRGEC"
